This note sets out measurements from the supplement of paper PMC12042874.

This data set in a line: amyloid nucleation score (Sup35N fusion, yeast selection) (log enrichment); library NNK2; higher = more nucleation; inactive = no reads after selection. In a few lines: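 Random libraries were run with three technical output replicates. In each, psi-negative yeast expressing Sup35N fused to peptides of 20 random codons were induced 24 hours with 100 μM copper sulfate and grown 7 days at 30°C on medium lacking adenine and uracil, and input and output plasmid inserts were Illumina-sequenced. The nucleation score is the DiMSum log enrichment of output over input reads, centred on the mode score of non-aggregating sequences, and sequences under 100 input reads were excluded.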

± gives the uncertainty stated by the source.

SRACVLWKGLRRAANTC registered an amyloid nucleation score of 0.984 ± 0.27.

Substance LMGIILF had an amyloid nucleation score of -1.49 ± 0.78.

The substance YLVNNAEMVNMELMISVSGA had an amyloid nucleation score of -0.337 ± 0.38.

Regarding FGVLYLDFCSIA, the amyloid nucleation score came out at 3.93 ± 0.087.

QERSILGLHWYICRVAKLSF: the amyloid nucleation score is 0.196 ± 0.64.

On to EILYYWPVNVICRKSVKDCI, for which the amyloid nucleation score is 0.434 ± 0.66.

In turn, LLRVDRCCWDN came in with an amyloid nucleation score of -0.011 ± 0.54.

In turn, PSPVIWPISSPGFQSLCICS yielded an amyloid nucleation score of -0.38 ± 0.63.

With LFLTDTLMMYINSECR, the amyloid nucleation score turned out to be 1.75 ± 0.087.

In turn, TQYFYIMLQ registered an amyloid nucleation score of 5.16 ± 0.071.

WRVFSYYHISDRF displayed an amyloid nucleation score of -0.19 ± 1.1.

Turning to YLFSLKQLWF, the amyloid nucleation score amounted to 5.06 ± 0.078.

VFGVLPIIGYPVRVLCVRFI showed an amyloid nucleation score of -0.43 ± 1.1.

Consider FIYIVAFPIREISGLSNL, for which the amyloid nucleation score entry is “inactive”.

YNQFNFFTG showed an amyloid nucleation score of 6.913 ± 0.045.

YGCLNYSRWRTSAGMDTNNG had an amyloid nucleation score of -0.794 ± 0.63.

With PSSDGIRITSDGILMSVDNG, the amyloid nucleation score turned out to be 0.918 ± 0.58.

LLSSWNKSYKIRTIGIIGNV came in with an amyloid nucleation score of -0.848 ± 0.25.

HIRDTESTTLVRVRGCSSPK yielded an amyloid nucleation score of 0.07 ± 0.61.

FIQVSHCYAKMPYTTVTPGA had an amyloid nucleation score of -0.191 ± 0.79.

SPWVNYYPSRVYRNVNACLF yielded an amyloid nucleation score of -0.339 ± 0.35.

EGSCYIWGSMAITFNAHHDR displayed an amyloid nucleation score of 5.68 ± 0.077.

HQRSDYV displayed an amyloid nucleation score of 0.383 ± 0.74.

Consider LLCNGVSGGQTNQDIFHMPC, for which the amyloid nucleation score entry is “inactive”.

In the case of RTYGYRDIQVQYRFCFCRGD, the amyloid nucleation score was 8.589 ± 0.057.

With EWHVWVCIWGCGIEAWMLSW, the amyloid nucleation score worked out at 1.84 ± 0.16.

Consider SVRVVDDGKTGGVGGTSQR, for which the amyloid nucleation score was 0.767 ± 0.8.

Take SCFTLSFKVITLHSRLQFIW: the amyloid nucleation score amounted to 0.181 ± 0.35.

In the case of QSVYLPLRNVIFPVVVSKCE, the amyloid nucleation score entry was “inactive”.

Turning to VKNFTPFRHILVITYNITFN, the amyloid nucleation score stood at 1.9 ± 0.14.

Substance IGWFKRRSCVEFGRRRMRIL displayed an amyloid nucleation score of -1.3 ± 1.1.

In turn, IIGGTYIWVCVRGPTGRFDG returned an amyloid nucleation score of 9.373 ± 0.064.

Turning to MFYLS, the amyloid nucleation score was -0.476 ± 0.37.

Regarding VRNGFKMRRRMSSPVCETLL, the amyloid nucleation score was -0.642 ± 1.1.

In turn, FMLYMRLCKFYYFFGS returned an amyloid nucleation score of -1.29 ± 0.41.

Turning to LFRDTSQLGNSVIVTYYM, the amyloid nucleation score was 9.029 ± 0.052.

The substance TYFAEIMNTPLRPSARHEAR returned an amyloid nucleation score of 1.72 ± 0.33.

For the substance ISDLCNASGWIRKDTSSRRL, the amyloid nucleation score was -0.27 ± 0.23.

Consider TRTGCDMGRRLVCS, for which the amyloid nucleation score was found to be 0.171 ± 0.35.

Take MLSTSDPVGFGRFCQNDWLN: the amyloid nucleation score came out at 0.256 ± 0.55.

On to QFLSYCFWIGNPLVNFINAN, for which the amyloid nucleation score was determined as 5.874 ± 0.039.

TNMPRWECSHGGRECGKGPA had an amyloid nucleation score of 1.19 ± 0.18.

The substance LDWRTQFLCV showed an amyloid nucleation score of 1.19 ± 0.61.

As for CTAYNITYMTATSRGMSC, the amyloid nucleation score entry is “inactive”.

TYLGNLYIMRFRAVLREPLV displayed an amyloid nucleation score of 0.077 ± 0.8.

YLVELNV returned an amyloid nucleation score of 0.344 ± 0.56.

In turn, SCLYSSRPSMLGTIYRRMRC had an amyloid nucleation score of 0.163 ± 0.34.

In turn, PASNWIRYRMTFQDGPYVKR yielded an amyloid nucleation score of 0.373 ± 0.66.

For VSGMPIKMR, the amyloid nucleation score amounted to 0.886 ± 0.34.

The substance IRVYFRDEYLKFG registered an amyloid nucleation score of -0.358 ± 0.19.

LIQVGQSST displayed an amyloid nucleation score of 0.046 ± 0.49.

HGAVRSLSGGHIDRELVCD displayed an amyloid nucleation score of 0.566 ± 0.74.

LMKSIVGFMNESPLVIEFGR yielded an amyloid nucleation score of -0.402 ± 0.27.

YWLSRSWHWKKLFGGWFALL came in with an amyloid nucleation score of 0.016 ± 0.54.

Substance SSKKCDNRGLMLWVRGILVA gave an amyloid nucleation score of -0.059 ± 0.24.

Substance NTYYFKALT displayed an amyloid nucleation score of 0.072 ± 1.1.

Regarding GVGYPVFYWKVSMYSRDSDH, the amyloid nucleation score came to 3.38 ± 0.067.

HDLKLV showed an amyloid nucleation score of 0.266 ± 0.41.

Turning to MMAIHVRMLARQSFGRICFM, the amyloid nucleation score stood at 3.45 ± 0.098.

VLACTEGNVLFEDDLRTKGL: the amyloid nucleation score worked out at 1.56 ± 0.35.

Consider MMLSLANNHGSL, for which the amyloid nucleation score came to 0.174 ± 0.28.

FYIIRD displayed an amyloid nucleation score of -0.866 ± 0.76.

VCVFMDFHLYMMSARQSTKD yielded an amyloid nucleation score of 7.894 ± 0.042.

As to VIQIVNFSDNIMTCLHNHLQ, the amyloid nucleation score stood at 5.64 ± 0.086.

Substance VDTRRMARKS came in with an amyloid nucleation score of 1.28 ± 0.27.

HDMRHYKGSPYYLNYWYGDG came in with an amyloid nucleation score of -0.623 ± 0.55.

For the substance TWHKFVSCDCGLH, the amyloid nucleation score amounted to 0.677 ± 0.47.

As for RTARPILDPC, the amyloid nucleation score entry is “inactive”.

FRLYFHPGVNGAET had an amyloid nucleation score of -0.356 ± 0.64.

Take SYVMFSIMEH: the amyloid nucleation score turned out to be 0.354 ± 0.65.

On to HTEFGRVGNICLGMRCEVDW, for which the amyloid nucleation score came to 0.792 ± 0.4.

As to QIVAFY, the amyloid nucleation score entry was “inactive”.

YNFRSSLRNGYKEVRGVQYG: the amyloid nucleation score came to 5.221 ± 0.043.

Substance KLCLGIGCRRQDTQAFGPPL returned an amyloid nucleation score of 5.65 ± 0.083.

The substance HFSDIRAFCFPCNPIMRVMK gave an amyloid nucleation score of -0.406 ± 0.56.

For the substance HHMKGAGPNNLFPGDPSGAR, the amyloid nucleation score was 3.46 ± 0.065.

IMPLSKLCMWETIRSDGRRG showed an amyloid nucleation score of 1.07 ± 0.29.

The substance LSCSILRPVWLYISLIVIID came in with an amyloid nucleation score of -1.28 ± 0.48.

On to GHHLISSDFFDYWGHNMFSG, for which the amyloid nucleation score result was “inactive”.

Substance KVNKMPYSLFIYLKKLNFC returned an amyloid nucleation score of -0.518 ± 1.1.

For the substance YSMVIY, the amyloid nucleation score was -0.014 ± 0.76.

Regarding QFVHRYGDHNAGVLPSYRKS, the amyloid nucleation score was 5.22 ± 0.066.

The substance FIMYFYKRTNYNFIKYHASA returned an amyloid nucleation score of 1.52 ± 0.15.

As for IWGLIAYLDSFNNFALDRRK, the amyloid nucleation score is -1.03 ± 0.42.

On to GGNIGVSYLRWCARINCWWK, for which the amyloid nucleation score came out at 5.49 ± 0.062.

In the case of IREYHMFDGHMRDRCFGQVK, the amyloid nucleation score was -0.048 ± 0.65.

NLGTWD had an amyloid nucleation score of -0.156 ± 0.28.

The substance AYIVDTKVT came in with an amyloid nucleation score of 1.11 ± 0.68.

GYIMIPRYPPSKHLCF displayed an amyloid nucleation score of -0.545 ± 0.41.

The substance VRFSVLRFGKLCPSGLWRVR had an amyloid nucleation score of 0.255 ± 1.1.

For EEILHLVPINWGLYYYYTFC, the amyloid nucleation score result is “inactive”.

In turn, KKQSRIHLSTSKNRFTWNTW returned an amyloid nucleation score of 0.007 ± 0.35.

Substance GDHRFMSVVYVFYQSLNGVV came in with an amyloid nucleation score of 3.41 ± 0.049.

Turning to GGSMSGFLSCGMI, the amyloid nucleation score is -1.02 ± 0.22.

AEVGTPESLLEGNIDRERIP returned an amyloid nucleation score of 0.42 ± 0.36.

Consider HGYSWVVI, for which the amyloid nucleation score was 0.019 ± 0.19.

The substance ADGFVSSIVLT came in with an amyloid nucleation score of 0.006 ± 0.24.

Regarding FWSIMWLVCPGAMWCNT, the amyloid nucleation score is 1.84 ± 0.28.

As to RPHTLGHRCSCQSNFFLLPL, the amyloid nucleation score turned out to be 0.025 ± 1.1.

Substance NLGCWLVGWLNCGFRWDDDR returned an amyloid nucleation score of 5.639 ± 0.038.

On to KLSIWGLRGVVGAWRCHTGY, for which the amyloid nucleation score entry is “inactive”.

As to IRLTSAYLHSDVWGVMQWNK, the amyloid nucleation score came out at 4.823 ± 0.041.

The substance IRSFEFHNAWMCVYIWSKLY returned an amyloid nucleation score of -0.271 ± 1.

Turning to LWSRVVVWQDRYVV, the amyloid nucleation score result is “inactive”.

For RTRCYCVYFRLLVHFA, the amyloid nucleation score was determined as 0.057 ± 1.1.

In the case of DTVYAF, the amyloid nucleation score was -0.651 ± 1.1.

TCWSFECTIEACLLDHVSTR: the amyloid nucleation score stood at 5.97 ± 0.081.

On to GCRRETEDVSGRLCCVVWSL, for which the amyloid nucleation score was determined as 0.206 ± 0.5.

For the substance KMDSRSKTMRWYSCGSD, the amyloid nucleation score was 1.53 ± 0.26.

In turn, VLEGIYLLMKVCLIYPRSYD gave an amyloid nucleation score of -1.8 ± 1.1.

As to GYGDGILVSFSC, the amyloid nucleation score was -0.986 ± 0.76.

In turn, DALLNFTRLSITNNVNIGP showed an amyloid nucleation score of 5.894 ± 0.046.

The substance DSSLNIGVLPIVTNGLTKCD yielded an amyloid nucleation score of -0.29 ± 0.28.

For the substance LNSDVVFIVPRYHNWFRSLR, the amyloid nucleation score result is “inactive”.

Turning to NFLWPCRIHVQGCIHISDTD, the amyloid nucleation score amounted to 6.171 ± 0.045.

Substance CLVKCAMPILVINICAG displayed an amyloid nucleation score of 7.82 ± 0.061.

For the substance WRMREWKWVEYCRHSVKDAL, the amyloid nucleation score turned out to be 1.54 ± 0.31.

With ILRLTAVCHGHFAVRPDWKR, the amyloid nucleation score stood at 0.248 ± 0.35.

VAILIMHCGAGSCRQMLMDS registered an amyloid nucleation score of 0.305 ± 0.45.

The substance TCDCIIARFDALTSISRLAL showed an amyloid nucleation score of 1.02 ± 0.41.

FYLRFNTFVSDTNCLTDWLA displayed an amyloid nucleation score of 3.46 ± 0.087.

Regarding GYTTMRKCFAQVEFRTPADT, the amyloid nucleation score result is “inactive”.

SGVWSSKSLYGKRGNSWIVV: the amyloid nucleation score came to 0.053 ± 0.23.

Substance THVLIFFMVLDLGPFKTGAD registered an amyloid nucleation score of -0.441 ± 1.1.

In the case of VFYVTYTS, the amyloid nucleation score was found to be 5.76 ± 0.074.

In turn, RHADF returned an amyloid nucleation score of 1.39 ± 0.27.

In turn, IVSSSNFFKLMYCMFILRIS yielded an amyloid nucleation score of 0.247 ± 1.

Turning to CHCWSELIQIFII, the amyloid nucleation score was 5.86 ± 0.061.

As to AWGYDKAVIFGAVDLQHVGT, the amyloid nucleation score was determined as 0.062 ± 0.79.

In the case of SVLMGG, the amyloid nucleation score was -0.223 ± 0.54.

On to WSHVYSV, for which the amyloid nucleation score was -0.124 ± 0.76.

The substance FKNCDGRNIRSSHNPFNMVR returned an amyloid nucleation score of -0.857 ± 0.34.

On to RFSLYNLIIEVSAVVEFLWT, for which the amyloid nucleation score result is “inactive”.

MIVWWNYCGSAVPRKIL gave an amyloid nucleation score of -0.586 ± 1.1.

Turning to IHGVFCEFVRIIRNVGSAIR, the amyloid nucleation score is -0.226 ± 0.35.

On to VRPFECGFTLPVWGG, for which the amyloid nucleation score worked out at 0.923 ± 0.81.

WGSMYRYFVDGSWFVVDISP: the amyloid nucleation score was -0.26 ± 0.27.

PRRCSISIEFRDE showed an amyloid nucleation score of -0.718 ± 0.76.

Regarding FFTIVMRRSILFCIFLVIDA, the amyloid nucleation score was -1.6 ± 0.49.
